Measured values as given in US20020197702A1.
* marks the point of attachment. AMC = Cc1cc(=O)oc2cc(N*)ccc12

Target: membrane-derived caspases
Experiment: cell-based or functional assay

Km for hydrolysis of DEVD-amc: 10 µM
Binder: Ac-DEVD-{AMC} [DEVD-amc (Acetyl-Asp-Glu-Val-Asp-aminomethylcoumarin)]
